Common to all, as to experiment: cell-based or functional assay
Experiment [1] addresses IL-25 (R&D Systems) used to restimulate human PBMC (UniProt Q9H293).
For experiment [2], the target named is human IL-17RB on human PBMC (human) (UniProt Q9NRM6).
For experiment [3], the target named is human IL-17RA on cells (human PBMC; human foreskin fibroblasts) (human) (UniProt Q96F46).

“And” between values parts separate entries of the source, which are not always exact repeats. Equal values may be shown once.

Sequence of human IL-17RB on human PBMC (human) (Q9NRM6 18-502): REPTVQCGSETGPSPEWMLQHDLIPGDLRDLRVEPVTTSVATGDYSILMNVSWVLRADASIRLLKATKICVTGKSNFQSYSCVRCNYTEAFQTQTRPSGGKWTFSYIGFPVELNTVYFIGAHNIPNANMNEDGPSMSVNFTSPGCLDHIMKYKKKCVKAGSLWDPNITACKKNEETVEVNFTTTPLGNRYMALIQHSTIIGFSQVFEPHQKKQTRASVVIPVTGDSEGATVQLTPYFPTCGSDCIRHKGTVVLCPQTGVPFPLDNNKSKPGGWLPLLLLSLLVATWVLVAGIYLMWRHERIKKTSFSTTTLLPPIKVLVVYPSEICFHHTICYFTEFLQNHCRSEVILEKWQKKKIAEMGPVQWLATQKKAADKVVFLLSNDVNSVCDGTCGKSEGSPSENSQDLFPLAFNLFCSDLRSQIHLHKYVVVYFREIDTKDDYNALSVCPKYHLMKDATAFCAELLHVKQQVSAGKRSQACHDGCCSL
Sequence of IL-25 (R&D Systems) used to restimulate human PBMC (Q9H293 33-177 limits assumed): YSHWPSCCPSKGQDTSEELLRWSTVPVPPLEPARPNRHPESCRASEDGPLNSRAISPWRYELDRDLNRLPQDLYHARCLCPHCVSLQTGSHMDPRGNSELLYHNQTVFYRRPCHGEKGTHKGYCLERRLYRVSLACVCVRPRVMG

Take “HuIL-17RB: HIS (extracellular region of human IL-17RB fused to poly HIS) (from UniProt Q9NRM6 18-292) (receptor)”: in experiment [1], the % Inhibition of IL-5 production (TSLP treated human PBMC + IL-2 + IL-25), inhibitor 10 micrograms/mL is 67%.

Consider “MAB1207: anti-HuIL-17RB MuIgG2b (R&D Systems) (antibody)”, for which, in experiment [2], the % Inhibition of IL-5 production (TSLP treated human PBMC + IL-2 + IL-25), inhibitor 10 micrograms/mL is 13%. Regarding “MAB1771: anti-HuIL-17RA MuIgG2b (R&D Systems) (antibody)”, the % Inhibition of IL-5 production (TSLP treated human PBMC + IL-2 + IL-25), inhibitor 10 micrograms/mL in experiment [3] is 24% and 33%.
